From publication PMC7367873, “Dissecting the sequence determinants for dephosphorylation by the catalytic subunits of phosphatases PP1 and PP2A” (Nature Communications, 2020)

How the values were obtained:
[1] = tested on: GFP-14-3-3β and its binding proteins; experiment: GFP-14-3-3β co-IP with LC-MS/MS label-free quantification, untreated versus PP1c-treated; set-up: species or system human; conditions: pairwise comparison PP1 vs untreated, 3 replicates each
GFP-14-3-3β = GFP-14-3-3β co-IP with LC-MS/MS, untreated GFP-14-3-3β versus GFP control (14-3-3 interactome); format: binding, human; conditions: 3 replicates each
[2] = student's t-test, LC-MS/MS label-free quantification
[3] = pairwise comparison untreated GFP-14-3-3β vs GFP, student's t-test, LC-MS/MS label-free quantification
[4] = log2 difference, label-free quantification
[5] = log2 difference, pairwise comparison untreated vs GFP, label-free quantification

Molecule | Difference (log2), PP1 vs untreated [1, 2] [log2] | Difference (log2), PP1 vs untreated [1, 4] | Difference (log2), untreated vs GFP (GFP-14-3-3β; [3]) [log2] | Difference (log2), untreated vs GFP (GFP-14-3-3β; [5])
SRSF7 (protein, UniProt Q16629 1-238, looked up) Serine/arginine-rich splicing …: MSRYGRYGGETKVYVGNLGTGAGKGELERAFSYYGPLRTVWIARNPPGFAFVEFEDPRDAEDAVRGLDGKVICGSRVRVELSTGMPRRSRFDRPPARRPFDPNDRCYECGEKGHYAYDCHRYSRRRRSRSRSRSHSRSRGRRYSRSRSRSRGRRSRSASPRRSRSISLRRSRSASLRRSRSGSIKGSRYFQSPSRSRSRSRSISRPRSSRSKSRSPSPKRSRSPSGSPRRSASPERMD | -6.84 |  | 7.205 | 
PI4KB (protein, UniProt Q9UBF8 2-816, looked up) Phosphatidylinositol 4-kinase …: GDTVVEPAPLKPTSEPTSGPPGNNGGSLLSVITEGVGELSVIDPEVAQKACQEVLEKVKLLHGGVAVSSRGTPLELVNGDGVDSEIRCLDDPPAQIREEEDEMGAAVASGTAKGARRRRQNNSAKQSWLLRLFESKLFDISMAISYLYNSKEPGVQAYIGNRLFCFRNEDVDFYLPQLLNMYIHMDEDVGDAIKPYIVHRCRQSINFSLQCALLLGAYSSDMHISTQRHSRGTKLRKLILSDELKPAHRKRELPSLSPAPDTGLSPSKRTHQRSKSDATASISLSSNLKRTASNPKVENEDEELSSSTESIDNSFSSPVRLAPEREFIKSLMAIGKRLATLPTKEQKTQRLISELSLLNHKLPARVWLPTAGFDHHVVRVPHTQAVVLNSKDKAPYLIYVEVLECENFDTTSVPARIPENRIRSTRSVENLPECGITHEQRAGSFSTVPNYDNDDEAWSVDDIGELQVELPEVHTNSCDNISQFSVDSITSQESKEPVFIAAGDIRRRLSEQLAHTPTAFKRDPEDPSAVALKEPWQEKVRRIREGSPYGHLPNWRLLSVIVKCGDDLRQELLAFQVLKQLQSIWEQERVPLWIKPYKILVISADSGMIEPVVNAVSIHQVKKQSQLSLLDYFLQEHGSYTTEAFLSAQRNFVQSCAGYCLVCYLLQVKDRHNGNILLDAEGHIIHIDFGFILSSSPRNLGFETSAFKLTTEFVDVMGGLDGDMFNYYKMLMLQGLIAARKHMDKVVQIVEIMQQGSQLPCFHGSSTIRNLKERFHMSMTEEQLQLLVEQMVDGSMRSITTKLYDGFQYLTNGIM | -5.63 |  | 4.864 | 
EIF5B (protein, UniProt O60841 1-1220, looked up) Eukaryotic translation …: MGKKQKNKSEDSTKDDIDLDALAAEIEGAGAAKEQEPQKSKGKKKKEKKKQDFDEDDILKELEELSLEAQGIKADRETVAVKPTENNEEEFTSKDKKKKGQKGKKQSFDDNDSEELEDKDSKSKKTAKPKVEMYSGSDDDDDFNKLPKKAKGKAQKSNKKWDGSEEDEDNSKKIKERSRINSSGESGDESDEFLQSRKGQKKNQKNKPGPNIESGNEDDDASFKIKTVAQKKAEKKERERKKRDEEKAKLRKLKEKEELETGKKDQSKQKESQRKFEEETVKSKVTVDTGVIPASEEKAETPTAAEDDNEGDKKKKDKKKKKGEKEEKEKEKKKGPSKATVKAMQEALAKLKEEEERQKREEEERIKRLEELEAKRKEEERLEQEKRERKKQKEKERKERLKKEGKLLTKSQREARARAEATLKLLQAQGVEVPSKDSLPKKRPIYEDKKRKKIPQQLESKEVSESMELCAAVEVMEQGVPEKEETPPPVEPEEEEDTEDAGLDDWEAMASDEETEKVEGNKVHIEVKENPEEEEEEEEEEEEDEESEEEEEEEGESEGSEGDEEDEKVSDEKDSGKTLDKKPSKEMSSDSEYDSDDDRTKEERAYDKAKRRIEKRRLEHSKNVNTEKLRAPIICVLGHVDTGKTKILDKLRHTHVQDGEAGGITQQIGATNVPLEAINEQTKMIKNFDRENVRIPGMLIIDTPGHESFSNLRNRGSSLCDIAILVVDIMHGLEPQTIESINLLKSKKCPFIVALNKIDRLYDWKKSPDSDVAATLKKQKKNTKDEFEERAKAIIVEFAQQGLNAALFYENKDPRTFVSLVPTSAHTGDGMGSLIYLLVELTQTMLSKRLAHCEELRAQVMEVKALPGMGTTIDVILINGRLKEGDTIIVPGVEGPIVTQIRGLLLPPPMKELRVKNQYEKHKEVEAAQGVKILGKDLEKTLAGLPLLVAYKEDEIPVLKDELIHELKQTLNAIKLEEKGVYVQASTLGSLEALLEFLKTSEVPYAGINIGPVHKKDVMKASVMLEHDPQYAVILAFDVRIERDAQEMADSLGVRIFSAEIIYHLFDAFTKYRQDYKKQKQEEFKHIAVFPCKIKILPQYIFNSRDPIVMGVTVEAGQVKQGTPMCVPSKNFVDIGIVTSIEINHKQVDVAKKGQEVCVKIEPIPGESPKMFGRHFEATDILVSKISRQSIDALKDWFRDEMQKSDWQLIVELKKVFEII |  | 1.436 |  | 0.212
PFKFB2 (protein, UniProt O60825 2-505, looked up) 6-phosphofructo-2-kinase/fruct …: SGASSSEQNNNSYETKTPNLRMSEKKCSWASYMTNSPTLIVMIGLPARGKTYVSKKLTRYLNWIGVPTKVFNLGVYRREAVKSYKSYDFFRHDNEEAMKIRKQCALVALEDVKAYLTEENGQIAVFDATNTTRERRDMILNFAEQNSFKVFFVESVCDDPDVIAANILEVKVSSPDYPERNRENVMEDFLKRIECYKVTYRPLDPDNYDKDLSFIKVINVGQRFLVNRVQDYIQSKIVYYLMNIHVQPRTIYLCRHGESEFNLLGKIGGDSGLSVRGKQFAQALRKFLEEQEITDLKVWTSQLKRTIQTAESLGVPYEQWKILNEIDAGVCEEMTYAEIEKRYPEEFALRDQEKYLYRYPGGESYQDLVQRLEPVIMELERQGNVLVISHQAVMRCLLAYFLDKGADELPYLRCPLHTIFKLTPVAYGCKVETIKLNVEAVNTHRDKPTNNFPKNQTPVRMRRNSFTPLSSSNTIRRPRNYSVGSRPLKPLSPLRAQDMQEGAD | -5.844 |  | 3.999 | 
SRPK1 (protein, UniProt Q96SB4 1-655, looked up) SRSF protein kinase 1: MERKVLALQARKKRTKAKKDKAQRKSETQHRGSAPHSESDLPEQEEEILGSDDDEQEDPNDYCKGGYHLVKIGDLFNGRYHVIRKLGWGHFSTVWLSWDIQGKKFVAMKVVKSAEHYTETALDEIRLLKSVRNSDPNDPNREMVVQLLDDFKISGVNGTHICMVFEVLGHHLLKWIIKSNYQGLPLPCVKKIIQQVLQGLDYLHTKCRIIHTDIKPENILLSVNEQYIRRLAAEATEWQRSGAPPPSGSAVSTAPQPKPADKMSKNKKKKLKKKQKRQAELLEKRMQEIEEMEKESGPGQKRPNKQEESESPVERPLKENPPNKMTQEKLEESSTIGQDQTLMERDTEGGAAEINCNGVIEVINYTQNSNNETLRHKEDLHNANDCDVQNLNQESSFLSSQNGDSSTSQETDSCTPITSEVSDTMVCQSSSTVGQSFSEQHISQLQESIRAEIPCEDEQEQEHNGPLDNKGKSTAGNFLVNPLEPKNAEKLKVKIADLGNACWVHKHFTEDIQTRQYRSLEVLIGSGYNTPADIWSTACMAFELATGDYLFEPHSGEEYTRDEDHIALIIELLGKVPRKLIVAGKYSKEFFTKKGDLKHITKLKPWGLFEVLVEKYEWSQEEAAGFTDFLLPMLELIPEKRATAAECLRHPWLNS |  | 1.464 |  | 0.8168

Further lines, with some results ahead:

Difference (log2), PP1 vs untreated [1, 2] [log2] | Difference (log2), PP1 vs untreated [1, 4] | Molecule | Difference (log2), untreated vs GFP (GFP-14-3-3β; [3]) [log2] | Difference (log2), untreated vs GFP (GFP-14-3-3β; [5])
 | 1.455 | FAM83H (protein, UniProt Q6ZRV2 1-1179, looked up) Protein FAM83H: MARRSQSSSQGDNPLAPGYLPPHYKEYYRLAVDALAEGGSEAYSRFLATEGAPDFLCPEELEHVSRHLRPPQYVTREPPEGSLLDVDMDGSSGTYWPVNSDQAVPELDLGWPLTFGFQGTEVTTLVQPPPPDSPSIKDEARRMIRSAQQVVAVVMDMFTDVDLLSEVLEAAARRVPVYILLDEMNAQHFLDMADKCRVNLQHVDFLRVRTVAGPTYYCRTGKSFKGHVKEKFLLVDCAVVMSGSYSFMWSFEKIHRSLAHVFQGELVSSFDEEFRILFAQSEPLVPSAAALARMDAYALAPYAGAGPLVGVPGVGAPTPFSFPKRAHLLFPPPREEGLGFPSFLDPDRHFLSAFRREEPPRMPGGALEPHAGLRPLSRRLEAEAGPAGELAGARGFFQARHLEMDAFKRHSFATEGAGAVENFAAARQVSRQTFLSHGDDFRFQTSHFHRDQLYQQQYQWDPQLTPARPQGLFEKLRGGRAGFADPDDFTLGAGPRFPELGPDGHQRLDYVPSSASREVRHGSDPAFAPGPRGLEPSGAPRPNLTQRFPCQAAARPGPDPAPEAEPERRGGPEGRAGLRRWRLASYLSGCHGEDGGDDGLPAPMEAEAYEDDVLAPGGRAPAGDLLPSAFRVPAAFPTKVPVPGPGSGGNGPEREGPEEPGLAKQDSFRSRLNPLVQRSSRLRSSLIFSTSQAEGAAGAAAATEKVQLLHKEQTVSETLGPGGEAVRSAASTKVAELLEKYKGPARDPGGGAGAITVASHSKAVVSQAWREEVAAPGAVGGERRSLESCLLDLRDSFAQQLHQEAERQPGAASLTAAQLLDTLGRSGSDRLPSRFLSAQSHSTSPQGLDSPLPLEGSGAHQVLHNESKGSPTSAYPERKGSPTPGFSTRRGSPTTGFIEQKGSPTSAYPERRGSPVPPVPERRSSPVPPVPERRGSLTLTISGESPKAGPAEEGPSGPMEVLRKGSLRLRQLLSPKGERRMEDEGGFPVPQENGQPESPRRLSLGQGDSTEAATEERGPRARLSSATANALYSSNLRDDTKAILEQISAHGQKHRAVPAPSPGPTHNSPELGRPPAAGVLAPDMSDKDKCSAIFRSDSLGTQGRLSRTLPASAEERDRLLRRMESMRKEKRVYSRFEVFCKKEEASSPGAGEGPAEEGTRDSKVGKFVPKILGTFKSKK |  | -1.013
 | 1.434 | DHX36 (protein, UniProt Q9H2U1 1-1008, looked up) ATP-dependent DNA/RNA …: MSYDYHQNWGRDGGPRSSGGGYGGGPAGGHGGNRGSGGGGGGGGGGRGGRGRHPGHLKGREIGMWYAKKQGQKNKEAERQERAVVHMDERREEQIVQLLNSVQAKNDKESEAQISWFAPEDHGYGTEVSTKNTPCSENKLDIQEKKLINQEKKMFRIRNRSYIDRDSEYLLQENEPDGTLDQKLLEDLQKKKNDLRYIEMQHFREKLPSYGMQKELVNLIDNHQVTVISGETGCGKTTQVTQFILDNYIERGKGSACRIVCTQPRRISAISVAERVAAERAESCGSGNSTGYQIRLQSRLPRKQGSILYCTTGIILQWLQSDPYLSSVSHIVLDEIHERNLQSDVLMTVVKDLLNFRSDLKVILMSATLNAEKFSEYFGNCPMIHIPGFTFPVVEYLLEDVIEKIRYVPEQKEHRSQFKRGFMQGHVNRQEKEEKEAIYKERWPDYVRELRRRYSASTVDVIEMMEDDKVDLNLIVALIRYIVLEEEDGAILVFLPGWDNISTLHDLLMSQVMFKSDKFLIIPLHSLMPTVNQTQVFKRTPPGVRKIVIATNIAETSITIDDVVYVIDGGKIKETHFDTQNNISTMSAEWVSKANAKQRKGRAGRVQPGHCYHLYNGLRASLLDDYQLPEILRTPLEELCLQIKILRLGGIAYFLSRLMDPPSNEAVLLSIRHLMELNALDKQEELTPLGVHLARLPVEPHIGKMILFGALFCCLDPVLTIAASLSFKDPFVIPLGKEKIADARRKELAKDTRSDHLTVVNAFEGWEEARRRGFRYEKDYCWEYFLSSNTLQMLHNMKGQFAEHLLGAGFVSSRNPKDPESNINSDNEKIIKAVICAGLYPKVAKIRLNLGKKRKMVKVYTKTDGLVAVHPKSVNVEQTDFHYNWLIYHLKMRTSSIYLYDCTEVSPYCLLFFGGDISIQKDNDQETIAVDEWIVFQSPARIAHLVKELRKELDILLQEKIESPHPVDWNDTKSRDCAVLSAIIDLIKTQEKATPRNFPPRFQDGYYS |  | 0.06686
